Measured values from patent US20110307974A1.
Values belong to the molecule of their own block, whether it stands above or below them.

Biological target: T1, APC10 (AT2G18290) fused at its N-terminus with the traditional TAP tag or with the GS tag (Arabidopsis thaliana) (UniProt Q9ZPW2)
T1 sequence: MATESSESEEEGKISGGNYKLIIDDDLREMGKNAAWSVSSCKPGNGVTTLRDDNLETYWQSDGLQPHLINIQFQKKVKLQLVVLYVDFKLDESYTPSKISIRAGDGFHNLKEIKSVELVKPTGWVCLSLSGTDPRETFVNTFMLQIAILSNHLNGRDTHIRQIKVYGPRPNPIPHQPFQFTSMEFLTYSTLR
Assay: TAP purification with tagged APC10 as bait from Arabidopsis cell suspension culture, MALDI-TOF/TOF MS identification

Molecule: APC2 (AT2G04660) (from UniProt Q8H1U5 1-865)
Found/6 exp (of 6 experiments): 3

Molecule: APC5 (AT1G06590) (from UniProt Q8H1U4 1-916)
Found/6 exp (of 6 experiments): 6

Molecule: APC7 (AT2G39090) (from UniProt Q8VY89 1-558)
Found/6 exp (of 6 experiments): 6

Molecule: APC8 (AT3G48150) (from UniProt Q9STS3 1-579)
Found/6 exp (of 6 experiments): 6

Molecule: CDC27b (AT2G20000) (from UniProt Q8LGU6 1-744)
Found/6 exp (of 6 experiments): 6

Molecule: CDKA; 1 (AT3G48750) (from UniProt P24100 1-294) (enzyme)
Found/6 exp (of 6 experiments): 1

Molecule: UVI4-like (AT3G57860) (from UniProt Q9M2R1 1-243)
Found/6 exp (of 6 experiments): 2

Molecule: eukaryotic translation initiation factor 3 subunit 8 (AT3G56150) (from UniProt O49160 1-900)
Found/6 exp (of 6 experiments): 1

Molecule: expressed protein (AT4G25550) (from UniProt Q8GXS3 1-200)
Found/6 exp (of 6 experiments): 2

Molecule: phosphoprotein-related (ELF8) (AT2G06210) (from UniProt B5X0I6 2-1091)
Found/6 exp (of 6 experiments): 1

Next, values leading:

Found/6 exp (of 6 experiments): 6
Molecule: APC1 (AT5G05560) (from UniProt Q9FFF9 1-1678)

Found/6 exp (of 6 experiments): 6
Molecule: APC4 (AT4G21530) (from UniProt O65418 1-777)

Found/6 exp (of 6 experiments): 1
Molecule: CCS52B (AT5G13840) (from UniProt Q8LPL5 1-481)

Found/6 exp (of 6 experiments): 6
Molecule: CDC16 (AT1G78770) (from UniProt B3DNN5 1-543)

Found/6 exp (of 6 experiments): 4
Molecule: CDC27a (AT3G16320) (from UniProt Q06AN9 1-717)

Found/6 exp (of 6 experiments): 2
Molecule: RNase L inhibitor protein, putative (AT4G19210) (from UniProt Q8LPJ4 1-605)

Found/6 exp (of 6 experiments): 3
Molecule: UVI4 (AT2G42260) (from UniProt O48533 1-259)

Found/6 exp (of 6 experiments): 4
B1: SAMBA (AT1G32310) (protein)
chain: MNGASPAHSLVSTTAVAGGGGSSGAAAGLDDFHFPPDIPSMQERKDEAMRVLKADLMTELDKEVKSLEEDSWMFEGPRSRIHLISRRGNFLKKGGEVKLW
